Data from article PMC7380208.

Molecular target: Recombinant SARS-CoV-2 spike protein ectodomain, native glycosylation (SARS-CoV-2) (UniProt P0DTC2)
Assay: ELISA

“Flt3 Receptor Interacting Lectin (FRIL) from Lablab purpureus (from UniProt Q9ZTA9) (natural protein)” showed a lowest FRIL concentration at which binding was seen of 10 ng/mL.
